Here are results for three molecules from PMC3395085.

Read-outs that look alike come from different tables or passages of the source.

Common to all, as to assay: X-ray crystallography
Data set [1] addresses T1, PFV integrase (IN) (prototype foamy virus, UniProt P14350 752-1143).
For data set [2], the target named is T1, PFV integrase (IN). The source holds these as a separate data set.
Data set [3] deals with T1, PFV integrase (IN). This is another data set of the same source.

B1: unprocessed U5 viral DNA end, 19 bp (N:r) (dsDNA)
DNA 1: TGCGAAATTCCATGACAAT
DNA 2: ATTGTCATGGAATTTCGCA
On to B1, for which, in the data set with PFV integrase (IN) [1], the binding result was “binds”.

B2: unprocessed U5 viral DNA end, 5'-phosphate on nonreactive strand (dsDNA)
DNA 1: TGCGAAATTCCATGACAAT
DNA 2: ATTGTCATGGAATTTCGCA
modifications: 5'-phosphate on strand 2 (nonreactive)
As to B2, the binding result with PFV integrase (IN) [2] is “binds”.

B3: 3'-processed viral DNA end (R:N, 17/19-mer), formed in crystallo (dsDNA)
DNA 1: TGCGAAATTCCATGACA
DNA 2: ATTGTCATGGAATTTCGCA
In the case of B3, the binding result with PFV integrase (IN) [3] is listed as “binds”.
